According to PMC12714700:

Target: SARS-CoV-2 Delta spike-ferritin fusion protein (Delta spike-ferritin VLP antigen) (SARS-CoV-2 (Delta variant) | Helicobacter pylori) (UniProt P0DTC2)
Assay: cryo-EM structure

## SARS-CoV-2 Delta spike-ferritin fusion protein (Delta spike-ferritin VLP antigen) (from UniProt P0DTC2 14-1163)
  stoichiometry N: 24
